Measurements taken from patent US20220048967A1 (published 2022).
Numbering of substitutions follows the chain as printed.

T1: human gastric inhibitory peptide receptor (GIPR) (human, UniProt P48546 22-466)
T1 sequence (looked up): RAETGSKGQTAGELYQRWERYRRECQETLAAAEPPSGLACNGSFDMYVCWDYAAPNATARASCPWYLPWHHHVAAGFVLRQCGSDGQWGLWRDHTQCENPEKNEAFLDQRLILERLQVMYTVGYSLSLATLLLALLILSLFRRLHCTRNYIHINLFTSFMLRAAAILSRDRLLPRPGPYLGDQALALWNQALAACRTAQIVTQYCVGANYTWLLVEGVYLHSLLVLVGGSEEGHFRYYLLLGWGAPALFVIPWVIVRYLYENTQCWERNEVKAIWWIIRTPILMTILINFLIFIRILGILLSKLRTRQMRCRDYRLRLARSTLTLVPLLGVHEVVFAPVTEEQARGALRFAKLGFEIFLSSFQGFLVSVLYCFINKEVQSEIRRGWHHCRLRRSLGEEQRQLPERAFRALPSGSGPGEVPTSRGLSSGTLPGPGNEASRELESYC

T2: human GIP receptor (human, UniProt P48546 22-466)
T2 sequence (looked up): T1 sequence (looked up)

B1: Example 376 (peptide)
peptide: XXEGTFTSDYSIXLDKKAQXAFIEXLIAGGPSSGAPPPS
modifications: D-Tyr1; Aib2; αMeL13; K17 conjugated to (2-[2-(2-Amino-ethoxy)-ethoxy]-acetyl)2-(γ-Glu)-CO-(CH2)16-CO2H; Aib20; αMeY25; C-terminal amide
B2: Example 377 (peptide)
peptide: B1 peptide with K16X
modifications: D-Tyr1; Aib2; αMeL13; Orn16; K17 conjugated to (2-[2-(2-Amino-ethoxy)-ethoxy]-acetyl)2-(γ-Glu)-CO-(CH2)16-CO2H; Aib20; αMeY25; C-terminal amide
B3: Example 378 (peptide)
peptide: B1 peptide with A21E, X25Y
modifications: D-Tyr1; Aib2; αMeL13; K17 conjugated to (2-[2-(2-Amino-ethoxy)-ethoxy]-acetyl)-(γ-Glu)-CO-(CH2)18-CO2H; Aib20; C-terminal amide
B4: Example 379 (peptide)
peptide: B1 peptide with A21E, A28E
modifications: D-Tyr1; Aib2; αMeL13; K17 conjugated to (2-[2-(2-Amino-ethoxy)-ethoxy]-acetyl)2-(γ-Glu)-CO-(CH2)18-CO2H; Aib20; αMeY25; C-terminal amide
B5: Example 380 (peptide)
peptide: B1 peptide with K16X, A21E, A28E
modifications: D-Tyr1; Aib2; αMeL13; Orn16; K17 conjugated to (2-[2-(2-Amino-ethoxy)-ethoxy]-acetyl)2-(γ-Glu)-CO-(CH2)18-CO2H; Aib20; αMeY25; C-terminal amide
B6: Example 2 (peptide)
peptide: YXEGTXTSDYSIXLDXKAQXEFIXYLIEGGPSSGAPPPS
modifications: Aib2; αMeF(2F)6; αMeL13; Orn16; K17((2-[2-(2-Amino-ethoxy)-ethoxy]-acetyl)2-(γ-Glu)-CO-(CH2)16-CO2H); Aib20; D-Glu24; C-terminal amide
B7: Example 3 (peptide)
peptide: B6 peptide
modifications: Aib2; αMeF(2F)6; αMeL13; Orn16; K17((2-[2-(2-Amino-ethoxy)-ethoxy]-acetyl)2-(γ-Glu)-CO-(CH2)18-CO2H); Aib20; D-Glu24; C-terminal amide
B8: Example 4 (peptide)
peptide: B6 peptide with Y10X, Y25X
modifications: Aib2; αMeF(2F)6; 4Pal10; αMeL13; Orn16; K17((2-[2-(2-Amino-ethoxy)-ethoxy]-acetyl)2-(γ-Glu)-CO-(CH2)16-CO2H); Aib20; D-Glu24; αMeY25; C-terminal amide
B9: Example 1 (peptide)
peptide: B6 peptide with X16E
modifications: Aib2; αMeF(2F)6; αMeL13; K17((2-[2-(2-Amino-ethoxy)-ethoxy]-acetyl)2-(γ-Glu)-CO-(CH2)18-CO2H); Aib20; D-Glu24; C-terminal amide
B10: Example 5 (peptide)
peptide: B6 peptide with Y10V, Y25X
modifications: Aib2; αMeF(2F)6; αMeL13; Orn16; K17((2-[2-(2-Amino-ethoxy)-ethoxy]-acetyl)2-(γ-Glu)-CO-(CH2)16-CO2H); Aib20; D-Glu24; αMeY25; C-terminal amide

Biological target: human GLP-1 receptor (GLP-1R) (human, UniProt P43220 24-463)
Assay: cell-based or functional assay
Wherever hGIPR cAMP EC50 ratio is given: reference of the scale not given here.
Wherever hGLP1R cAMP EC50 ratio is given: reference of the scale not given here.

Row | Binder | hGLP1R cAMP EC50 ratio [ratio] | hGLP1R cAMP Rel EC50 [nM]
1 | B1 | 0.159 | 0.17
2 | B2 | 0.199 | 0.136
3 | B3 | 0.142 | 0.191
4 | B4 | 0.114 | 0.238
5 | B5 | 0.115 | 0.236

Biological target: T1, human gastric inhibitory peptide …
Assay: cell-based or functional assay

Row | Binder | hGIPR cAMP EC50 ratio [ratio] | hGIPR cAMP Rel EC50 [nM]
6 | B1 | 0.734 | 0.0723
7 | B2 | 0.976 | 0.0544
8 | B3 | 0.793 | 0.067
9 | B4 | 0.672 | 0.079
10 | B5 | 0.374 | 0.142

Biological target: T2, human GIP receptor
Assay: cell-based or functional assay

Row | Binder | cAMP EC50 [nM]
11 | B6 | 2.64
12 | B7 | 9.24
13 | B8 | 1.03
14 | B9 | 38.5
15 | B10 | 1.98

Biological target: human GLP-1 receptor (human, UniProt P43220 24-463)
Assay: cell-based or functional assay

Row | Binder | cAMP EC50 [nM]
16 | B6 | 6.52
17 | B7 | 19.4
18 | B8 | 2.02
19 | B9 | 53.3
20 | B10 | 1.61

Biological target: human glucagon receptor (human, UniProt P47871 26-477)
Assay: cell-based or functional assay

Sequence of human glucagon receptor (P47871 26-477): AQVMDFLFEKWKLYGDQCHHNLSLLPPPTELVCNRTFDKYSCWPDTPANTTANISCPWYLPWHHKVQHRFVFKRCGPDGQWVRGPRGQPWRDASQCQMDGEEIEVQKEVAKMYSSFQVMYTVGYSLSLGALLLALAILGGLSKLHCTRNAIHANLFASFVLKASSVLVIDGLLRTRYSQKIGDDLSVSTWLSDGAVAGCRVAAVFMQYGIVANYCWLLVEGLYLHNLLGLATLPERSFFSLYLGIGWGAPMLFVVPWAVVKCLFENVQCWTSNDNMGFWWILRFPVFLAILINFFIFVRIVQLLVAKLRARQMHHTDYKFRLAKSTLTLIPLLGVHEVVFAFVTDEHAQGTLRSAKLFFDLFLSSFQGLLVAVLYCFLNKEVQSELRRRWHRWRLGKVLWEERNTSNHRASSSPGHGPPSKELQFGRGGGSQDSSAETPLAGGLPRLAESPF

Row | Binder | cAMP EC50 [nM]
21 | B6 | > 10900
22 | B7 | > 10900
23 | B8 | > 10900
24 | B9 | > 11400
25 | B10 | > 10900
